Data published in patent US20170267750A1, “Method of Treating Ovarian and Renal Cancer Using Antibodies Against T Cell Immunoglobulin Domain and Mucin Domain 1 (TIM-1) Antigen” (Celldex Therapeutics, Inc., priority 2005, published 2017).

Biological target: TIM-1 (T cell, immunoglobulin domain and mucin domain 1), cell membrane-bound (human) (UniProt Q96D42)
Test: FACS on polarized human CD4+ Th2 cells, 10 ug/mL mAb, goat anti-human PE (control antibody background)

Sequence of TIM-1 (T cell, immunoglobulin domain and mucin domain 1), cell membrane-bound (human) (Q96D42 21-364): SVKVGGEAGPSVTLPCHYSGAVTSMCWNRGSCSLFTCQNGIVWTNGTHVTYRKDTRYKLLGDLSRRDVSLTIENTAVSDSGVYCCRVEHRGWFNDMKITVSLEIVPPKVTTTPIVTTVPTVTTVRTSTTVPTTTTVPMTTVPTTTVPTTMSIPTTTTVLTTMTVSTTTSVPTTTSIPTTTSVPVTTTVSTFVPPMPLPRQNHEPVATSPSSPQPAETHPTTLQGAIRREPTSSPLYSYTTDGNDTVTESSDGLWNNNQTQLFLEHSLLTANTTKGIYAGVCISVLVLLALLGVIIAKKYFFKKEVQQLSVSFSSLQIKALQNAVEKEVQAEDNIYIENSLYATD

Geometric mean of fluorescence intensity: 8.4
Substance: isotype matched control mAb PK16.3 (antibody)
